In IntAct's records for PubMed 31515488:

B1: Germ cell-less protein-like 1 (Homo sapiens), Q96IK5 (parent)
chain: MGSLSSRVLRQPRPALAQQAQGARAGGSARRPDTGDDAAGHGFCYCAGSHKRKRSSGSFCYCHPDSETDEDEEEGDEQQRLLNTPRRKKLKSTSKYIYQTLFLNGENSDIKICALGEEWSLHKIYLCQSGYFSSMFSGSWKESSMNIIELEIPDQNIDVEALQVAFGSLYRDDVLIKPSRVVAILAAACLLQLDGLIQQCGETMKETVNVKTVCGYYTSAGTYGLDSVKKKCLEWLLNNLMTHQNVELFKELSINVMKQLIGSSNLFVMQVEMDIYTALKKWMFLQLVPSWNGSLKQLLTETDVWFSKQRKDFEGMAFLETEQGKPFVSVFRHLRLQYIISDLASARIIEQDAVVPSEWLSSVYKQQWFAMLRAEQDSEVGPQEINKEELEGNSMRCGRKLAKDGEYCWRWTGFNFGFDLLVTYTNRYIIFKRNTLNQPCSGSVSLQPRRSIAFRLRLASFDSSGKLICSRTTGYQILTLEKDQEQVVMNLDSRLLIFPLYICCNFLYISPEKKN
B2: STAM-binding protein (Homo sapiens), O95630 (parent)
chain: MSDHGDVSLPPEDRVRALSQLGSAVEVNEDIPPRRYFRSGVEIIRMASIYSEEGNIEHAFILYNKYITLFIEKLPKHRDYKSAVIPEKKDTVKKLKEIAFPKAEELKAELLKRYTKEYTEYNEEKKKEAEELARNMAIQQELEKEKQRVAQQKQQQLEQEQFHAFEEMIRNQELEKERLKIVQEFGKVDPGLGGPLVPDLEKPSLDVFPTLTVSSIQPSDCHTTVRPAKPPVVDRSLKPGALSNSESIPTIDGLRHVVVPGRLCPQFLQLASANTARGVETCGILCGKLMRNEFTITHVLIPKQSAGSDYCNTENEEELFLIQDQQGLITLGWIHTHPTQTAFLSSVDLHTHCSYQMMLPESVAIVCSPKFQETGFFKLTDHGLEEISSCRQKGFHPHSKDPPLFCSCSHVTVVDRAVTITDLR
B3: Max-like protein X (Homo sapiens), Q9UH92 (parent)
chain: MTEPGASPEDPWVKASPVGAHAGEGRAGRARARRGAGRRGASLLSPKSPTLSVPRGCREDSSHPACAKVEYAYSDNSLDPGLFVESTRKGSVVSRANSIGSTSASSVPNTDDEDSDYHQEAYKESYKDRRRRAHTQAEQKRRDAIKRGYDDLQTIVPTCQQQDFSIGSQKLSKAIVLQKTIDYIQFLHKEKKKQEEEVSTLRKDVTALKIMKVNYEQIVKAHQDNPHEGEDQVSDQVKFNVFQGIMDSLFQSFNASISVASFQELSACVFSWIEEHCKPQTLREIVIGVLHQLKNQLY
partner: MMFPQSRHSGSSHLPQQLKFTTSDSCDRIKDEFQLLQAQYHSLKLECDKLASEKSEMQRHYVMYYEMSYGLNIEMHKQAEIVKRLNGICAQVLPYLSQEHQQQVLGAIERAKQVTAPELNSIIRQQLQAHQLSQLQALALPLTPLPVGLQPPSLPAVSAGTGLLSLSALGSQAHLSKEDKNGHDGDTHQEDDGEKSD
B4: Transmembrane protein 51 (Homo sapiens), Q9NW97 (parent)
chain: MMAQSKANGSHYALTAIGLGMLVLGVIMAMWNLVPGFSAAEKPTAQGSNKTEVGGGILKSKTFSVAYVLVGAGVMLLLLSICLSIRDKRKQRQGEDLAHVQHPTGAGPHAQEEDSQEEEEEDEEAASRYYVPSYEEVMNTNYSEARGEEQNPRLSISLPSYESLTGLDETTPTSTRADVEASPGNPPDRQNSKLAKRLKPLKVRRIKSEKLHLKDFRINLPDKNVPPPSIEPLTPPPQYDEVQEKAPDTRPPD
partner: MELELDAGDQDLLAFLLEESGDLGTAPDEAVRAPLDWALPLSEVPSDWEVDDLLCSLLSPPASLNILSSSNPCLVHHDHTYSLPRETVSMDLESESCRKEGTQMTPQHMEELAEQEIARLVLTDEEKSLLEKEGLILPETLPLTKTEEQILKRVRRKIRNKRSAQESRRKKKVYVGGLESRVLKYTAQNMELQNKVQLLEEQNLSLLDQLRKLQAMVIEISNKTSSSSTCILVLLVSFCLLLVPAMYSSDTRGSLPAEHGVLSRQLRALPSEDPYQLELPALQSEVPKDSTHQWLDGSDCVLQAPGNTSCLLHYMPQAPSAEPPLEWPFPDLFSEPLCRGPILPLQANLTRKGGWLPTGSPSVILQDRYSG
B5: F-box/WD repeat-containing protein 1A (Homo sapiens), Q9Y297 (parent)
chain: MDPAEAVLQEKALKFMCSMPRSLWLGCSSLADSMPSLRCLYNPGTGALTAFQNSSEREDCNNGEPPRKIIPEKNSLRQTYNSCARLCLNQETVCLASTAMKTENCVAKTKLANGTSSMIVPKQRKLSASYEKEKELCVKYFEQWSESDQVEFVEHLISQMCHYQHGHINSYLKPMLQRDFITALPARGLDHIAENILSYLDAKSLCAAELVCKEWYRVTSDGMLWKKLIERMVRTDSLWRGLAERRGWGQYLFKNKPPDGNAPPNSFYRALYPKIIQDIETIESNWRCGRHSLQRIHCRSETSKGVYCLQYDDQKIVSGLRDNTIKIWDKNTLECKRILTGHTGSVLCLQYDERVIITGSSDSTVRVWDVNTGEMLNTLIHHCEAVLHLRFNNGMMVTCSKDRSIAVWDMASPTDITLRRVLVGHRAAVNVVDFDDKYIVSASGDRTIKVWNTSTCEFVRTLNGHKRGIACLQYRDRLVVSGSSDNTIRLWDIECGACLRVLEGHEELVRCIRFDNKRIVSGAYDGKIKVWDLVAALDPRAPAGTLCLRTLVEHSGRVFRLQFDEFQIVSSSHDDTILIWDFLNDPAAQAEPPRSPSRTYTYISR
B6: Synaptotagmin-16 (Homo sapiens), Q17RD7 (parent)
chain: MVLAMASQDVQNFFQPFSSWISRVYEALQQAGDMLSASLVNISKQDSKLSDKLDQDLDNIQIQETYFEDEEQDNDWSQEDANSLFLEVDHFSCCNSDLQDSAQNSSPSLSQHAKDSCSTMSQWPNWASDDRKLPHVLSSIAEEEHHLEKQRSGLQHGFDSQLPGTLETVNGKKQVNSFGDDEELSTSSDSDEEVIKQFEISVSRSQSFRSVTSEKGKQTGLEQKPKFSRSLLTHGEDGTEVSACEDLDGASQRRYSENLSYGEDDHIPAHSQSPCERGDAKHHGTSHQESSVVQSLRRQSTEGSLEMETAFNSRGFEDSYATDSSSMWSPEEQDRTNLQVPSGVSEPISKCGDLDVIFEYRAASQKLTVTIVRAQGLPDKDRSGVNSWQVHVVLLPGKKHRGRTNIQRGPNPVFREKVTFAKLEPRDVAACAVRFRLYAARKMTRERMMGEKLFYLSHLHPEGEMKVTLVLEPRSNISSGGSPLSPSAVSHSDSTSSTQSLSHGGAPELLVGLSYNATTGRLSVEMIKGSHFRNLAVNRAPDTYGKLFLLNSVGQEMSRCKTSIRRGQPNPVYKETFVFQVALFQLSDVTLMISVYNRRTMKRKEMIGWIALGQNSSGEEEQDHWEEMKETKGQQICRWHTLLES

Variants of: B1
Settings: with cul3_human CUL3, Q13618

Variant	effect of a mutation on the interaction
K123R	with no effect

Variants of: B1
Settings: with FAM167A

Variant	effect of a mutation on the interaction
K123R	with no effect

Variants of: B2
Settings: with grb2_human GRB2, P62993
Chain of grb2_human GRB2, P62993 (P62993 whole entry, looked up): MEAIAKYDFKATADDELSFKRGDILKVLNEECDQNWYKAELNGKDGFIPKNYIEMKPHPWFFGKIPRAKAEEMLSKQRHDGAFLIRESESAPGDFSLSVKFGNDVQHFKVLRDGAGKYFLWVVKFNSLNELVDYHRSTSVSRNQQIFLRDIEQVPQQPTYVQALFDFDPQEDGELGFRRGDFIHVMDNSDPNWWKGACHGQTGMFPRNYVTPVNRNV

Variant	effect of a mutation on the interaction
R255H	with no effect
Q155H	disrupting interaction strength
E167K	disrupting interaction strength

Variants of: B2
Settings: with stam2_human STAM2, O75886

Variant	effect of a mutation on the interaction
R255H	with no effect
Q155H	disrupting interaction strength

Variants of: B3
Settings: with tle5_human TLE5, Q08117

Variant	effect of a mutation on the interaction
Q223R	with no effect

Variants of: B4
Settings: with creb3_human CREB3, O43889

Variant	effect of a mutation on the interaction
D188G	with no effect
R146W	with no effect
P159S	with no effect
P237L	with no effect

Variants of: B5
Settings: with tacc1_human TACC1, O75410
Chain of tacc1_human TACC1, O75410 (O75410 whole entry): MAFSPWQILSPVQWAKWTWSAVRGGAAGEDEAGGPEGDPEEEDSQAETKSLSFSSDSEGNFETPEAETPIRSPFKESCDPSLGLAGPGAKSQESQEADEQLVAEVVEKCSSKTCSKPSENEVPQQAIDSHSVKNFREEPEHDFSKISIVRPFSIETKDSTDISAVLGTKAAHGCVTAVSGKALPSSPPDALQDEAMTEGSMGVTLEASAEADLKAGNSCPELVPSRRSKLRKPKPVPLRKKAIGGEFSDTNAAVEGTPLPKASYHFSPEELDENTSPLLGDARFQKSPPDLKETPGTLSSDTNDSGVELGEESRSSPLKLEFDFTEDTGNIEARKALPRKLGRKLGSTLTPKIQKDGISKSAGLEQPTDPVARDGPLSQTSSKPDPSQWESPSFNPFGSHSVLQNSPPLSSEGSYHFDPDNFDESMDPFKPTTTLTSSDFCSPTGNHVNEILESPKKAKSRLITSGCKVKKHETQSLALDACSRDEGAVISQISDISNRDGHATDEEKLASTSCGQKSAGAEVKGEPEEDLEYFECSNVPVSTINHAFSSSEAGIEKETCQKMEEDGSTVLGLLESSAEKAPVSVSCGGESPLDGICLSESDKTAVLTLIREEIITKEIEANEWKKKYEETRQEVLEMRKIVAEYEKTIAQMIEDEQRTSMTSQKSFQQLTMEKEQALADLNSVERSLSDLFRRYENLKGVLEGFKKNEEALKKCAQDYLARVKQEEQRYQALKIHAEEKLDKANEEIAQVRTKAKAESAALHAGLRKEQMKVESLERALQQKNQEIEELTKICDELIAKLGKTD

Variant	effect of a mutation on the interaction
R594H	with no effect
I439V	disrupting interaction strength
L8M	with no effect
P592H	with no effect
T414A	disrupting interaction strength
T601S	with no effect

Variants of: B6
Settings: with praf1_human RABAC1, Q9UI14
Chain of praf1_human RABAC1, Q9UI14 (Q9UI14 whole entry): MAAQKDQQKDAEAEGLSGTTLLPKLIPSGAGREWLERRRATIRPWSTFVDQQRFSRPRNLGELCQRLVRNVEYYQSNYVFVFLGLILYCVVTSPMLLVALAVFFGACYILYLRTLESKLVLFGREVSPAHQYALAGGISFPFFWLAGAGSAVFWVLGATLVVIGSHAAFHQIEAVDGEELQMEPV

Variant	effect of a mutation on the interaction
R131L	with no effect
A536T	with no effect

Variants of: B6
Settings: with rtn4_human RTN4, Q9NQC3
Chain of rtn4_human RTN4, Q9NQC3 (Q9NQC3 whole entry): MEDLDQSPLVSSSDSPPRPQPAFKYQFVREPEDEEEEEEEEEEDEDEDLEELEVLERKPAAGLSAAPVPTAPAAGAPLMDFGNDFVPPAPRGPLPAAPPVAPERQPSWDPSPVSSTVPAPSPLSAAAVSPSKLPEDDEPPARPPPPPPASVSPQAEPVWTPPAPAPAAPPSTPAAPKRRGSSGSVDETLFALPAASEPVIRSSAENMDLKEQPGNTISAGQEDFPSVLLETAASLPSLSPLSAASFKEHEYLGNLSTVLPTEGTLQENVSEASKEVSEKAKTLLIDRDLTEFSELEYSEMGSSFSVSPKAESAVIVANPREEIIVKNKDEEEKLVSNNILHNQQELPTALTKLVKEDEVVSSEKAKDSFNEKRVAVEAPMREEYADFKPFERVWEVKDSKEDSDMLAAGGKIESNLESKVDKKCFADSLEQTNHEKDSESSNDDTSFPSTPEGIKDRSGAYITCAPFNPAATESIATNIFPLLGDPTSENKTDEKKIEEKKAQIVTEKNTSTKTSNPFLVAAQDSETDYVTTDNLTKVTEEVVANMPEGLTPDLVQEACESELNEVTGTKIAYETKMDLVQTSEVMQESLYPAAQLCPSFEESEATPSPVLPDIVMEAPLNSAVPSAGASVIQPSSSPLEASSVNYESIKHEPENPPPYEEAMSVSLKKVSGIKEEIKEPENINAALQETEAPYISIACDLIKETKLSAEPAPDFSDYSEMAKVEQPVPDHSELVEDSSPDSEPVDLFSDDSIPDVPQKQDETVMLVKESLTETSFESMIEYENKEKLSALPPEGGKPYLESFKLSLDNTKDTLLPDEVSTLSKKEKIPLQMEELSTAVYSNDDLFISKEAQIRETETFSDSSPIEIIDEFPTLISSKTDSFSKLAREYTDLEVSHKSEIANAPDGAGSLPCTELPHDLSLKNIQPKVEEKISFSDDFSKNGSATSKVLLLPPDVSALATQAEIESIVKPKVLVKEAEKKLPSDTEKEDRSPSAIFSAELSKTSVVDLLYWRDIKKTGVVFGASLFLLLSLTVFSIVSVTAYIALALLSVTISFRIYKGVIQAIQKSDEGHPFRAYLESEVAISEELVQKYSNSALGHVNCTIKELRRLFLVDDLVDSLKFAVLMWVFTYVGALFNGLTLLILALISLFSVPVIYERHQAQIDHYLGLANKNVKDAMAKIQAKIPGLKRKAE

Variant	effect of a mutation on the interaction
R131L	with no effect
A536T	with no effect

Variants of: B6
Settings: with atrap_human AGTRAP

Variant	effect of a mutation on the interaction
R131L	with no effect
A536T	with no effect
